The values that follow come from patent US20260209362A1 (VIB VZW, published 2026).

Positions count from the first letter of the chain named.

T1: human IL-12Rβ2 (human, UniProt Q99665 24-862)
T1 construct: Expressed on HEK293T cells transiently transfected with a pcDNA3 plasmid (Genscript clone OHu21785); also called hIL-12RB2; IL-12 receptor β2 subunit
T1 sequence: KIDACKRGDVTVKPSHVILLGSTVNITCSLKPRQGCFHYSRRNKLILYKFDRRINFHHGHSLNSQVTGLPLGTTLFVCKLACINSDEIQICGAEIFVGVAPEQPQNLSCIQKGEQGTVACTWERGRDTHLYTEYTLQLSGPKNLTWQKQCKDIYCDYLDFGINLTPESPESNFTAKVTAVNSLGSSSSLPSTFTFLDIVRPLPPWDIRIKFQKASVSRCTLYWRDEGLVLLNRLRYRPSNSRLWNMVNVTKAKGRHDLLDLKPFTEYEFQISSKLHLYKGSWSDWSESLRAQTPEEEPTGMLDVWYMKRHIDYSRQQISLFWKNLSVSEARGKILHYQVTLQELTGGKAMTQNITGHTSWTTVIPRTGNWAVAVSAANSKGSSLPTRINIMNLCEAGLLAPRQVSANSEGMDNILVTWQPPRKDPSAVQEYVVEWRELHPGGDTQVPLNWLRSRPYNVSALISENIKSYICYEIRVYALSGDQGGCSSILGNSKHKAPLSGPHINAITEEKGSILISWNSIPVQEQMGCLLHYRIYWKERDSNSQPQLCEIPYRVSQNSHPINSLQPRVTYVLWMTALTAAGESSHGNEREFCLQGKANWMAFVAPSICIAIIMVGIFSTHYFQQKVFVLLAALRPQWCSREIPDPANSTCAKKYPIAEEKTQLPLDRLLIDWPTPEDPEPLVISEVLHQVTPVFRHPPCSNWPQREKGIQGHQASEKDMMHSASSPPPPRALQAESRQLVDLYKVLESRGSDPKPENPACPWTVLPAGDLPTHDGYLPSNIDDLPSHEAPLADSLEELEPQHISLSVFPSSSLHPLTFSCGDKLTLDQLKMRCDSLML

B1: anti-IL-12Rβ2 VHH clone 3CRHS31 (VHH, not shown: small tags and cut ends)
VHH: QVQLQESGGGLVQAGGSLRLSCAASGFTFSTYAMSWVRQAPGKGLEWVSSVNSGGLSTDYADSVEGRFTISRDDAKNMLFLQMNSLKPEDTARYYCAKYEDCSDYVCDRAGYWGQGTQVTVSS
notes: periplasmic extract
B2: anti-IL-12Rβ2 VHH clone 3CRHS51 (VHH, not shown: small tags and cut ends)
VHH: B1 VHH with A14P, S50A, S85R
notes: periplasmic extract
B3: anti-IL-12Rβ2 VHH clone 2CRH41 (VHH, not shown: small tags and cut ends)
VHH: QVQLQESGGGLVQPGGSLRLSCTASGFAFSSYWMYWVRQSPEKGFEWVSVVDTDGGITYYADSVKGRFTISRDNAKNTLYLQMNSLKPQDTALYYCARDRTTLEYTRTYYRTGQGTQVTVSS
notes: periplasmic extract; also called 20365
B4: anti-IL-12Rβ2 VHH clone 3CRHS163 (VHH, not shown: small tags and cut ends)
VHH: B3 VHH with S31T, V37I, D52N, D54G, G56D, Q89E, L103M, E104S, T112G
notes: periplasmic extract
B5: anti-IL-12Rβ2 VHH clone 3CRH28 (VHH, not shown: small tags and cut ends)
VHH: QVQLQESGGGLVQPGGSLTLSCAASGFTFSSNAMSWVRQAPGKGLEWVSSISSGGGTTYYTDSVKGRFTTARDNAKNTLYLRMNSLKPEDTAVYYCSKSSTGSGSRGQGTQVTVSS
notes: periplasmic extract
B6: anti-IL-12Rβ2 VHH clone 3CAH28 (VHH, not shown: small tags and cut ends)
VHH: QVQLQESGGGLVQSGASLRLSCAASERTLSGYAMGWFRQAPGKEREFVAAIRWSGSSTYYAESVEGRFTISRDNAKNTVYLQMNILKPEDTAVYYCAAGSDYADEYDYWGQGTQVTVSS
notes: periplasmic extract; also called 20356
B7: anti-IL-12Rβ2 VHH clone 3CRH59 (VHH, not shown: small tags and cut ends)
VHH: QVQLQESGGGLVQPGGSLRLSCTASGFAFSSYWMYWVRQTPGKGFEWVSVVNPGGEITYYGDSMEDRFTISRDNAKNTLYLQMNSLKPEDTGLYYCARDRTTIDYTRTYYRGGQGTQVTVSS
notes: periplasmic extract
B8: anti-IL-12Rβ2 VHH clone 3CAH32 (VHH, not shown: small tags and cut ends)
VHH: QVQLQESGGGLVQPGGSLRLSCAASGSILRINLMGWYRQVPGKQRELVAEMSTGGSTTYVDSVKGRFTISRDNAKNTVYLQMNSLKPEDTAVYYCNAKAWQLGRLENDDWGQGTQVTVSS
notes: periplasmic extract; also called 20357
B9: anti-IL-12Rβ2 VHH clone 3CAHS102 (VHH, not shown: small tags and cut ends)
VHH: B8 VHH with K64E
notes: periplasmic extract
B10: anti-IL-12Rβ2 VHH clone 3CRH25 (VHH, not shown: small tags and cut ends)
VHH: QVQLQESGGGLVQAGDSLRLSCTASGHTFSRYTTIGWFRQAPGKDREFVAAIRWSGDITDYADAVKGRFTISRDNVKNTVYLQMNSLNPEDTAVYYCARGYSEYGVLSRNRGLYAYWGQGTQVTVSS
notes: periplasmic extract
B11: anti-IL-12Rβ2 VHH clone 3CRH64 (VHH, not shown: small tags and cut ends)
VHH: B10 VHH with D16G, M84T
notes: periplasmic extract
B12: anti-IL-12Rβ2 VHH clone 3CRHS77 (VHH, not shown: small tags and cut ends)
VHH: B10 VHH with D16G, R31S, D45E, R53G, D74H, K77E
notes: periplasmic extract
B13: anti-IL-12Rβ2 VHH clone 3CRHS99 (VHH, not shown: small tags and cut ends)
VHH: QVQLQESGGGLVQPGGSLRLSCKASGFTFSTYAMSWVRQAPGKGLEWVSAINSGGLSTDYADSVEGRFTISRDDAKNMLFLQMNSLKAEDTARYYCAKYEDCSDYMCHRDRAGYWGQGTQVTVSS
notes: periplasmic extract
B14: anti-IL-12Rβ2 VHH clone 3CRHS106 (VHH, not shown: small tags and cut ends)
VHH: B13 VHH with I51V, A88P
notes: periplasmic extract
B15: anti-IL-12Rβ2 VHH clone 3CAHS41 (VHH, not shown: small tags and cut ends)
VHH: QVQLQESGGGLVQAGDSLRLSCAASGRTFDTYIVGWFRQAPGKEREFVSALSWSDDTTIRDDSLRGRFTISRDNAKNTVYLLMNSLKPEDTAVYYCAAKAKPPAATWSSYRNREWYDYWGQGTQVTVSS
notes: periplasmic extract
B16: anti-IL-12Rβ2 VHH clone 3CAHS180 (VHH, not shown: small tags and cut ends)
VHH: B15 VHH with I70L
notes: periplasmic extract
B17: anti-IL-12Rβ2 VHH clone 3CAHS170 (VHH, not shown: small tags and cut ends)
VHH: QVQLQESGGGLVQAGGSLRLSCVASGRTFSSYAMGWFRQGPGKEREFVAAISWSGVSIYYADSVKGRFTISRDNAKNTVYLQMNSLEPEDTAVYYCAGTEGAYTVAGGSTFGYDMDYWGKGTQVTVSS
notes: periplasmic extract
B18: anti-IL-12Rβ2 VHH clone 3CAH48 (VHH, not shown: small tags and cut ends)
VHH: B17 VHH with V23A, I58T, E87R, G98A
notes: periplasmic extract; also called 20360
B19: anti-IL-12Rβ2 VHH clone 2CAH27 (VHH, not shown: small tags and cut ends)
VHH: B17 VHH with L11S, A14S
notes: periplasmic extract
B20: anti-IL-12Rβ2 VHH clone 3CAHS79 (VHH, not shown: small tags and cut ends)
VHH: QVQLQESGGGLVQPGGSLRLTCVASGFPFSTHAMSWVRQPPGKGREWISAINSGGDSTDYADSVMGRFTISRDNAKNTVYLQMNSLKSEDTAVYYCAKYEDCSDYDCSSRASWGQGTQVTVSS
notes: periplasmic extract
B21: anti-IL-12Rβ2 VHH clone 3CAHS171 (VHH, not shown: small tags and cut ends)
VHH: B20 VHH with V93A
notes: periplasmic extract
B22: anti-IL-12Rβ2 VHH clone 3CAHS142 (VHH, not shown: small tags and cut ends)
VHH: QVQLQESGGGLVQAGESLTLSCIASGVIKDYAMGWFRQAPGKEREFVAAISWSGVSIYYADSVKGRFTISRDNAKNTVYLQMNSLEPEDTAVYYCAGTEGAYTVAGGSTFGYDMDYWGKGTQVTVSS
notes: periplasmic extract
B23: anti-IL-12Rβ2 VHH clone 3CAHS124 (VHH, not shown: small tags and cut ends)
VHH: QVQLQESGGGLVQPGGSLRLSCAASGRTINAYIMGWFRQAPGKEREFVAAVSGSGGSTYYADSVKGRFTISRDNAKNTVNLQMDNLRSEDTDVYYCAATYESVYLQNPGQYDYWGQGTQVTVSS
notes: periplasmic extract
B24: anti-IL-12Rβ2 VHH clone 3CAHS150 (VHH, not shown: small tags and cut ends)
VHH: B23 VHH with L11S, P14A, I33V, V51I
notes: periplasmic extract
B25: anti-IL-12Rβ2 VHH clone 3CRHS142 (VHH, not shown: small tags and cut ends)
VHH: QVQLQESGGGLVQAGGSLRLSCVSSQTLVGIEAMGWYRQAPGKQRELVALITLNGGTFYADSVKGRFTISRDVAEHMLYLEMNSLNPEDTAVYFCVAGVESDNEEPTYWGQGTQVTVSS
notes: periplasmic extract
B26: anti-IL-12Rβ2 VHH clone 2CRHS4 (VHH, not shown: small tags and cut ends)
VHH: B25 VHH with A14P, E75G
notes: periplasmic extract
B27: anti-IL-12Rβ2 VHH clone 3CRHS156 (VHH, not shown: small tags and cut ends)
VHH: B25 VHH with A14S, T68A
notes: periplasmic extract
B28: anti-IL-12Rβ2 VHH clone 3CRHS166 (VHH, not shown: small tags and cut ends)
VHH: B25 VHH with A14S
notes: periplasmic extract
B29: anti-IL-12Rβ2 VHH clone 3CRHS67 (VHH, not shown: small tags and cut ends)
VHH: B25 VHH with R19T
notes: periplasmic extract
B30: anti-IL-12Rβ2 VHH clone 3CRH83 (VHH, not shown: small tags and cut ends)
VHH: QVQLQESGGGLVQAGGSLKLSCAASGNTFSINAMAWYRQAPGQELELVAAISDVGNTIYADSMKGRFTISRGNADNTVYLQMNSLKPEDTATYYCNAGTFYTSPGDSYYRGYDFWGQGTQVTVSS
notes: periplasmic extract
B31: anti-IL-12Rβ2 VHH clone 3CAH60 (VHH, not shown: small tags and cut ends)
VHH: QVQLQESGGGLVQPGGSLILSCVASGFAMDYLTMGWSREAPRNEREDISCIDTSGRSTDYLDSVKGRFTISRDNAKNTLYLHMNDLKPEDTAEYYCLASTSYCGAGYEYRGQGTQVTVSS
notes: periplasmic extract; also called 20361

For the assay, the target named is T1, human IL-12Rβ2. The experiment in a line: flow cytometry, P.E. on transfected HEK293T cells.
As for B1, the “% cells bound” value is 42.8% and the dMFI was found to be 977.
The corresponding values for B2 are 46% and 1240.
Taken in the same sequence, the figures for B3 were 31.6% and 583.
Regarding B4, the “% cells bound” value was 43.7% and the dMFI is 1150.
For the molecule B5, the “% cells bound” value is 44.6% and the dMFI amounted to 1110.
Turning to B6, the “% cells bound” value was found to be 0.15% and the dMFI came to 37.
The corresponding values for B7 are 46.1% and 1170.
Taken in the same sequence, the figures for B8 were 40% and 742.
As to B9, the “% cells bound” value stood at 44.7% and the dMFI was found to be 1090.
Regarding B10, the “% cells bound” value worked out at 34.8% and the dMFI is 620.
Taken in the same sequence, the figures for B11 were 31% and 645.
Taken in the same sequence, the figures for B12 were 37.7% and 867.
Taken in the same sequence, the figures for B13 were 42.1% and 980.
Take B14: the “% cells bound” value was determined as 43.3% and the dMFI was found to be 1110.
The corresponding values for B15 are 43.3% and 1070.
Taken in the same sequence, the figures for B16 were 42.6% and 1010.
The corresponding values for B17 are 38.3% and 809.
In the case of B18, the “% cells bound” value worked out at 39.4% and the dMFI worked out at 801.
Taken in the same sequence, the figures for B19 were 36.7% and 668.
Taken in the same sequence, the figures for B20 were 46.1% and 1230.
The corresponding values for B21 are 47.5% and 1280.
Take B22: the “% cells bound” value is 40.9% and the dMFI came to 912.
The corresponding values for B23 are 46.3% and 1200.
The corresponding values for B24 are 47.4% and 1270.
Taken in the same sequence, the figures for B25 were 1.02% and 210.
B26: the “% cells bound” value was determined as 3.55% and the dMFI was 254.
Taken in the same sequence, the figures for B27 were 1.51% and 222.
Taken in the same sequence, the figures for B28 were 2.11% and 266.
The corresponding values for B29 are 7.11% and 443.
B30: the “% cells bound” value turned out to be 28.3% and the dMFI stood at 602.
The corresponding values for B31 are 0.1% and 18.
